Laboratory results: the supplement of paper PMC9732359
± gives the uncertainty stated by the source.

Assay: protein stability index of a GFP-peptide fusion (yeast GPS) (PSI 1-4); higher = more stable; sorted into four equal gates, so the index is relative within each strain
Summary of the method: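 The protein stability index combines read frequencies across sorting gates, each weighted by its gate number and then summed. To obtain those frequencies, a pooled yeast library of GFP fusions to tiled 17-residue yeast protein peptides, on a plasmid also expressing Cherry, was grown to mid-log phase in leucine-free medium. The cells were sorted into four equal gates by GFP/Cherry ratio before plasmid amplification by PCR and Illumina sequencing.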

Sequence | protein stability index (doa10∆) | protein stability index (pdr5∆) | protein stability index (san1∆) | protein stability index (ubr1∆)
IKTRTVHELSKRVHTLL [ISW2] | 1.37 ± 0.091 | 1.49 ± 0.072 | 2.18 ± 0.17 | 1.49 ± 0.049
IKVENLNDTTEKSKALE [SMC2] | 3.07 ± 0.082 | 3.3 ± 0.092 | 3.35 ± 0.052 | 3.25 ± 0.059
ILEDDFAVALKNEPDYS [CDC53] | 3.3 ± 0.088 | 3.09 ± 0.14 | 3.24 ± 0.072 | 2.87 ± 0.12
ILGIHTSKMNLSEDVNL [RPT2] | 3.03 ± 0.12 | 3.16 ± 0.081 | 3 ± 0.13 | 3.14 ± 0.067
ILINTARIHAQNYLKTY [PRE9] | 2.01 ± 0.085 | 1.78 ± 0.073 | 2.55 ± 0.17 | 1.89 ± 0.06
ILKLLNGFMESAIVNED [SOH1] | – | 3.27 ± 0.18 | 3.41 ± 0.17 | 3.57 ± 0.22
ILLEPIYEVDITVHAPL [SNU114] | 2.57 ± 0.049 | 2.56 ± 0.06 | 2.43 ± 0.085 | 2.47 ± 0.046
ILLQHKEKLTVQDCRYS [POP1] | 2.53 ± 0.054 | 2.45 ± 0.049 | 2.31 ± 0.05 | 2.42 ± 0.03
ILLSHHRASPADVSIKS [POP5] | 2.79 ± 0.24 | 3.4 ± 0.18 | 3.24 ± 0.062 | –
ILNDIETLEHNPVALEQ [BRR2] | 2.95 ± 0.08 | 3.25 ± 0.1 | 3.18 ± 0.079 | 3.13 ± 0.077
ILPQQSKLKLKNLLRKN [ECM29] | 2.39 ± 0.089 | 1.79 ± 0.051 | 2.01 ± 0.07 | 2.25 ± 0.074
ILTGTPLQNNLPELWAL [SNF2] | 2.24 ± 0.05 | 2.4 ± 0.044 | 2.15 ± 0.055 | 2.3 ± 0.043
ILTSLMRSKLEKLTLVT [CSN9] | 2.42 ± 0.081 | 3.03 ± 0.064 | 2.87 ± 0.06 | 2.67 ± 0.059
ILVPDLYHLVIMKFQSL [ECM29] | 1.28 ± 0.081 | 1.3 ± 0.086 | 1.12 ± 0.15 | 1.38 ± 0.063
IMAKRPFDKKSNSALFR [FAS1] | 2.84 ± 0.059 | 2.9 ± 0.062 | 2.87 ± 0.046 | 2.89 ± 0.05
IMDNDPVLFNRQPSLHK [RPO21] | 1.77 ± 0.074 | 2.17 ± 0.069 | 2.26 ± 0.23 | 1.84 ± 0.074
IMNLITNEPCGAQFSRS [RPN4] | – | 3.1 ± 0.3 | – | 2.96 ± 0.17
IMWQLLDGVSYLHQNWV [SSN3] | 1.61 ± 0.074 | 1.59 ± 0.08 | 1.23 ± 0.12 | 1.75 ± 0.076
INAQGEEIVVVASADYE [PRP8] | 2.91 ± 0.09 | 3.33 ± 0.096 | 2.78 ± 0.07 | 2.73 ± 0.04
INIQKKLEPKEIVRDIL [SIR4] | 3.05 ± 0.085 | 3.19 ± 0.12 | 2.85 ± 0.12 | 2.86 ± 0.11
INLTQTYGISVVDVALK [NUT1] | 2.24 ± 0.077 | 1.91 ± 0.054 | 1.76 ± 0.1 | 2.55 ± 0.038
INQIFSPEEQRSLLQEA [GAL11] | 2.95 ± 0.12 | 3.07 ± 0.063 | 3.53 ± 0.11 | 3.03 ± 0.1
INSGTFVKVTKATLELL [RPL7A] | 3.01 ± 0.1 | 2.92 ± 0.092 | 2.65 ± 0.12 | 2.9 ± 0.12
IPDMSKNVELGWKPLRY [SNU114] | 3.29 ± 0.24 | 3.23 ± 0.23 | 2.58 ± 0.23 | 3.22 ± 0.15
IPGEEVEETEVPTVPPS [MED4] | 2.66 ± 0.11 | 2.42 ± 0.11 | 2.44 ± 0.13 | 2.62 ± 0.059
IPGMSNMMNQVGEEETS [SRP54] | – | – | 2.14 ± 0.29 | –
IPIGHVHVIHFQHADNS [AAR2] | 2.86 ± 0.11 | 2.71 ± 0.073 | 2.9 ± 0.074 | 2.65 ± 0.05

Sequence | protein stability index (doa10∆) | protein stability index (pdr5∆) | protein stability index (san1∆) | protein stability index (ubr1∆)
IPQDFENEVSDIDVTIV [ESC2] | 2.96 ± 0.096 | 2.34 ± 0.092 | 2.77 ± 0.11 | 2.42 ± 0.054
IPSIPNPIANHTVTNSP [SNF5] | 2.46 ± 0.039 | 2.68 ± 0.036 | 2.45 ± 0.041 | 2.6 ± 0.027
IPTKESLTRDFEQCCKE [YIL149C/MLP2] | 2.81 ± 0.078 | 2.96 ± 0.13 | 2.62 ± 0.088 | 2.88 ± 0.13
IPVYCFSHPAHQQRMSR [YCG1] | 1.88 ± 0.037 | 2.04 ± 0.044 | 1.93 ± 0.046 | 2.04 ± 0.037
IPYSRNAPAWFKLSSES [RPS13] | 1.93 ± 0.058 | 1.92 ± 0.045 | 2.12 ± 0.074 | 2.44 ± 0.052
IQDSNGDVKNMEDVKIQ [SWI3] | 2.86 ± 0.071 | 2.8 ± 0.091 | 2.41 ± 0.1 | 2.94 ± 0.061
IQEFLVVIEKRRKKILN [GRR1] | 2.92 ± 0.091 | 2.74 ± 0.097 | 2.88 ± 0.083 | 2.94 ± 0.088
IQEYQLCDNFNHFSLSY [COR1] | 2.35 ± 0.049 | 2.61 ± 0.053 | 2.44 ± 0.055 | 2.27 ± 0.057
IQKQIETIQADLNHVTE [SMC2] | 2.96 ± 0.047 | 3.16 ± 0.053 | 2.96 ± 0.037 | 2.87 ± 0.039
IQRTRERKKSIGSQRGR [DSN1] | 2.94 ± 0.077 | 2.5 ± 0.063 | 2.56 ± 0.061 | 2.91 ± 0.069
IQWYKSLLEKDIDAVNG [ISW2] | 2.73 ± 0.085 | 3.02 ± 0.075 | 2.81 ± 0.2 | 2.82 ± 0.055
IRAQNFKSALANLEDII [RRP6] | 1.89 ± 0.06 | 1.75 ± 0.062 | 2.29 ± 0.091 | 1.41 ± 0.047
IRFVCLSNCLANARDFG [BRR2] | 2.09 ± 0.053 | 1.81 ± 0.052 | 1.72 ± 0.074 | 2.24 ± 0.044
IRIFRSELQRLSHENNV [RPT5] | 2.67 ± 0.11 | 3.21 ± 0.088 | 2.96 ± 0.052 | 2.9 ± 0.091
IRIYDLGKKKATVDEFP [RPL10] | 1.47 ± 0.054 | 1.51 ± 0.048 | 1.21 ± 0.098 | 1.29 ± 0.035
IRKLLEKINRMIIFLKN [CSI1] | 1.81 ± 0.079 | 1.5 ± 0.063 | 1.31 ± 0.11 | 1.19 ± 0.041
IRKLVKNGTIVKKAVTV [RPL19A] | 2.88 ± 0.17 | 3.08 ± 0.12 | 3.15 ± 0.12 | 3.28 ± 0.072
IRKQPDDIINNDEPSHK [SIR2] | 2.91 ± 0.065 | 2.95 ± 0.039 | 2.94 ± 0.04 | 2.83 ± 0.039
IRKSETSGRYASYRICM [RPB5] | 2.57 ± 0.088 | 2.89 ± 0.063 | 2.9 ± 0.072 | 2.97 ± 0.086
IRKTPLAQKKAHLAEIQ [RPL3] | 2.19 ± 0.1 | 1.39 ± 0.066 | 2.77 ± 0.12 | 1.26 ± 0.05
IRSERFKVARELKTEAA [ITC1] | – | 2.25 ± 0.25 | – | –
ISKHSKQAIYTRATASE [RPS25A] | 1.98 ± 0.056 | 2.03 ± 0.045 | 1.97 ± 0.072 | 1.85 ± 0.039
ISLIPELSVVLSGIIQD [RRI2] | 1.75 ± 0.077 | 1.76 ± 0.09 | 1.96 ± 0.12 | 1.99 ± 0.064
ISLLKNRRKQSFVLNKN [RPN4] | 3.52 ± 0.25 | 3.06 ± 0.25 | 3.04 ± 0.15 | 3.21 ± 0.14
ISLRNNMFELAQQLVGV [SMC4] | 1.24 ± 0.089 | 1.74 ± 0.079 | 1.78 ± 0.093 | 1.87 ± 0.084
ISLSFSRPASYGYFSVG [SIR4] | 1.78 ± 0.073 | 1.82 ± 0.06 | 1.81 ± 0.11 | 2.07 ± 0.052
ISLYFNDILDELLCGMA [ECM29] | 1.64 ± 0.1 | 1.81 ± 0.069 | 2.04 ± 0.18 | 1.48 ± 0.06

Sequence | protein stability index (doa10∆) | protein stability index (pdr5∆) | protein stability index (san1∆) | protein stability index (ubr1∆)
ISMNAPVFVDLEGETDP [RPO26] | – | 2.78 ± 0.3 | – | 3 ± 0.19
ISNGTINIQKKLEPKEI [SIR4] | 2.77 ± 0.079 | 2.89 ± 0.075 | 2.37 ± 0.089 | 3 ± 0.1
ISNLTQEQVQDYVNKTN [FAS1] | 2.34 ± 0.047 | 2.81 ± 0.043 | 2.82 ± 0.057 | 2.27 ± 0.033
ISSAKLDKFTDGGLFTL [QCR2] | 2.42 ± 0.13 | 3.06 ± 0.15 | 3.23 ± 0.088 | 3.21 ± 0.14
ISSLFTITTILILGLNT [YML103C/NUP188] | 1.51 ± 0.078 | 1.75 ± 0.094 | 1.46 ± 0.2 | 1.75 ± 0.065
ISSPIVANSPNKRLDVI [YDL088C/ASM4] | 2.71 ± 0.23 | 2.88 ± 0.14 | – | 2.85 ± 0.13
ISTPIINAVLVNDNDER [RPO31] | 2.25 ± 0.085 | 2.22 ± 0.1 | 2.31 ± 0.12 | 2.21 ± 0.086
ISVGESGDRLTRASKVL [RPL11A] | – | 3.08 ± 0.19 | – | 3.4 ± 0.22
ISYLQEVQCTSTPYLEI [PCI8] | 2.68 ± 0.16 | – | 1.7 ± 0.2 | 1.81 ± 0.22
ITKMLASDESLLRYGGA [RPN2] | 3.28 ± 0.11 | 3.41 ± 0.17 | 3.23 ± 0.11 | 3.82 ± 0.22
ITLLTRQRELLIAHQRS [GRR1] | 2.18 ± 0.039 | 2.14 ± 0.038 | 2.01 ± 0.045 | 1.89 ± 0.029
ITLRTSGELLQGIVRVY [MCD1] | 2.96 ± 0.075 | 2.9 ± 0.063 | 2.48 ± 0.066 | 3.12 ± 0.057
ITNKHQEGLAKFGACVA [RPN2] | 1.78 ± 0.054 | 1.97 ± 0.038 | 2.54 ± 0.092 | 2.51 ± 0.035
ITSDALEGITTTIDSLN [SMC3] | 2.45 ± 0.062 | 2.93 ± 0.084 | 2.9 ± 0.08 | 2.99 ± 0.07
ITSIPKPLTENCKKKKK [RMP1] | 2.84 ± 0.12 | 2.75 ± 0.12 | 2.05 ± 0.085 | 2.99 ± 0.095
ITVVPVVAAAEDDDNEQ [QCR6] | 1.61 ± 0.068 | 2.04 ± 0.064 | 1.72 ± 0.12 | 1.89 ± 0.036
IVAAGGGSGAATFSVSQ [CSL4] | – | 3.47 ± 0.2 | – | –
IVAALPISEKGLTLSTT [RPP1] | 2.11 ± 0.087 | 2.61 ± 0.063 | 2.65 ± 0.057 | 2.48 ± 0.094
IVDDKQEMIDILETIFR [DIB1] | 2.98 ± 0.1 | 3.17 ± 0.13 | 3.02 ± 0.22 | 2.75 ± 0.18
IVDGKLKTEKIFKEINE [FAS1] | 1.76 ± 0.074 | 1.85 ± 0.13 | 1.91 ± 0.11 | 1.91 ± 0.091
IVFDICQILDGELDVLQ [PRP8] | 2.7 ± 0.11 | 2.63 ± 0.11 | 2.39 ± 0.1 | 3.07 ± 0.11
IVKFKQKEEGRSFTKAI [YLR335W/NUP2] | 3.13 ± 0.069 | 3.09 ± 0.066 | 3.24 ± 0.05 | 3.29 ± 0.047
IVLGVKDLQENLLVLRG [RPO21] | 1.43 ± 0.078 | 1.35 ± 0.057 | 2.87 ± 0.059 | 1.5 ± 0.071
IVLIKGISSAYIKSATL [SNU114] | 1.92 ± 0.087 | 2.05 ± 0.069 | 2.5 ± 0.07 | 2.52 ± 0.064
IVPGTYIQERNPTQRPQ [RPS10A] | 3.01 ± 0.054 | 3.08 ± 0.043 | 3.05 ± 0.037 | 3.12 ± 0.034
IWFPEDFISPELIIDKV [MED1] | 2.68 ± 0.068 | 2.66 ± 0.069 | 3.01 ± 0.075 | 2.94 ± 0.044
